Target: T1, Syntaxin-1A (183-288) (Rattus norvegicus, UniProt P32851 183-288)
T1 construct: Syntaxin-1A, Rattus norvegicus, residues 183-288
Assay: complex assembly from purified proteins, isolated by ion-exchange chromatography; truncated syb-2, syntaxin-1A and SNAP-25a mixed at 1.5:1:1 molar ratio, incubated at 4 °C overnight, complex purified by ion-exchange chromatography in the presence of CHAPS
Settings: both partners purified

T1 sequence (P32851 183-288): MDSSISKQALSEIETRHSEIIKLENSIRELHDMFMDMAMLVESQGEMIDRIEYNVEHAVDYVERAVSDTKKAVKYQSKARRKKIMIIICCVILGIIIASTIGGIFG

B1: Truncated synaptobrevin-2 (49-96) (domain or fragment, Rattus norvegicus, UniProt P63045 49-96, looked up)
chain: NVDKVLERDQKLSELDDRADALQAGASQFETSAAKLKRKYWWKNLKMM
notes: Synaptobrevin-2 (VAMP2), Rattus norvegicus, residues 49-96; also called truncated syb-2; C-terminal syb fragment
binding result: binds
